This data set addresses YTHDC1 YTH domain (UniProt Q96MU7 345-509). Kind of data set: MST.

B1: probe 1 (ssRNA)
RNA: AAAGGACGUGG
modifications: m6A at position 6
What is called Kd is the equilibrium constant for the complex coming apart. Read a high Kd as lower affinity. For the molecule B1, binding was characterised by a dissociation constant (Kd) of 0.39 µM.

B2: probe 2 (ssRNA)
RNA: AAAGGACGUGG
B2 came in with a Kd of 16.9 µM.

These data come from PMC6684389.
